How the values were obtained:
hPR [1] = target: T1, hPR (Homo sapiens, UniProt P06401); experiment: Transient transfection CAT reporter assay, hPRB with PRE2-TATA-CAT in HeLa cells; format: cell-based; settings: HeLa cells, PRE2-TATA-CAT, 2×10^−8 M R5020, without SRC-1
T1 construct: expressed in transfected cells; host or cells: HeLa
T1 sequence (P06401 1-933): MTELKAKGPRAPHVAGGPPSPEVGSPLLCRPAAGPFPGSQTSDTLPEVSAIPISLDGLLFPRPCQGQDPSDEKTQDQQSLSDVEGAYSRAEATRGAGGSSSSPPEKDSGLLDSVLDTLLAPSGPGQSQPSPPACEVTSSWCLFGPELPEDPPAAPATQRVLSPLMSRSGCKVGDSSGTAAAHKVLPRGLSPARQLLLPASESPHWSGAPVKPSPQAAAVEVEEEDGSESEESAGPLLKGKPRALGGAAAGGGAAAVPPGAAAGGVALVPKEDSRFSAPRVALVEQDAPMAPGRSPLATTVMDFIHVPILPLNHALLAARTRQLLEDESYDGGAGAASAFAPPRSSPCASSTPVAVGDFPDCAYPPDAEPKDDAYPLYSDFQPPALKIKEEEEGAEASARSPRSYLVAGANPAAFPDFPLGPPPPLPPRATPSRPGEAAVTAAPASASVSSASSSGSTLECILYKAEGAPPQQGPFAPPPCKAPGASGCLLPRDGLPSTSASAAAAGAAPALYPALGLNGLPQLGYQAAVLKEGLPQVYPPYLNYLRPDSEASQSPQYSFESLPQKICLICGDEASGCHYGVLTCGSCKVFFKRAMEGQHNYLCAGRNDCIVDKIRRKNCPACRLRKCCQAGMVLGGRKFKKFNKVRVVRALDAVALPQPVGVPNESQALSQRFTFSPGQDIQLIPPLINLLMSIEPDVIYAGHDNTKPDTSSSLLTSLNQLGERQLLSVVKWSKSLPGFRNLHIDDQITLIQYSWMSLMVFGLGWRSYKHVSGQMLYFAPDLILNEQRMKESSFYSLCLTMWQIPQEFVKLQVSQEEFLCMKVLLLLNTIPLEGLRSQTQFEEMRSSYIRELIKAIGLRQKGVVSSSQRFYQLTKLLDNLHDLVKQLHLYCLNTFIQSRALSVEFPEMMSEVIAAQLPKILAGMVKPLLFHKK
Experimental: (§1) Lipofectin (GibcoBRL) was selected for transfection of Hela cells.
To further investigate the role of SRC-1 in receptor transactivation of target gene expression, transient transfection assays were carried out in mammalian cell lines. HeLa cells were cotransfected with mammalian expression vectors for full-length SRC-1 and hPRB together with a plasmid containing two copies of the progesterone-responsive DNA element (PRE) inserted in front of the TATA box of the E1b adenovirus, linked to the chloramphenicol acetyl transferase (CAT) reporter gene, PRE2-TATA-CAT.
Cells were harvested 42 h after transfection and the chloramphenicol acetyl transferase (CAT) activity determined using 8 μg of protein extract.

hPR [2] = target: T1, hPR; experiment: Dominant-negative CAT assay PR/PRE2-tk-CAT with SRC-1(0.8); format: cell-based; settings: Lmtk- cells
Experimental: as §1
(§2) To further elucidate the mechanism of SRC-1 action, the effect of the N-terminal deletion mutant of SRC-1, SRC-1(0.8), on receptor transactivation was examined. The amino acid sequence from 865-1061, which contains the region that binds to the receptor, was cloned in frame to a mammalian expression vector that provided an exogenous AUG codon.
(§3) Lmtk^− cells were transfected with 5 μg of steroid receptors cDNAs expression vectors and their reporters, PR/PRE2-tk-CAT and TR§/DR4-tk-CAT, along with 10 μg of SRC-1(0.8) or empty expression vector and then treated with hormones (2×10^−8 M). The reporter CAT activity was determined using 60 μg of protein extract.

GST-TR = target: T2, GST-TR (Homo sapiens, UniProt P10828); experiment: In vitro interaction with baculovirus expressed GST-TR; format: binding
T2 construct: GST; made in house
T2 sequence (P10828 1-461): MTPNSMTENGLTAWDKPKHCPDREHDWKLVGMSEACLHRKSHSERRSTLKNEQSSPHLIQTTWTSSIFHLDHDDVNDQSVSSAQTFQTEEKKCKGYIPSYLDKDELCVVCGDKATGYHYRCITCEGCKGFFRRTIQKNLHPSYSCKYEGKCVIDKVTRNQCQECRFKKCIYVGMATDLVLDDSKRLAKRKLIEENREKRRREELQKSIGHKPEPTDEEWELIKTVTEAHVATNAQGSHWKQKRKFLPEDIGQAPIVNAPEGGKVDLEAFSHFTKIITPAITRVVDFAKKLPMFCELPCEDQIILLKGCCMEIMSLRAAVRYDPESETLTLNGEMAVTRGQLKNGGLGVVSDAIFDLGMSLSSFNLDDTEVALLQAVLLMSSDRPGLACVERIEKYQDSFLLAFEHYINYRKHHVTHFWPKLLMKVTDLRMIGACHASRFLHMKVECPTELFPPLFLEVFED
From the text: (§4) Thus, we investigated the effect of SRC-1 expression on the transcriptional activity of other intracellular receptors.

GST-ER = target: T3, GST-ER (Homo sapiens, UniProt P03372); experiment: In vitro interaction with baculovirus expressed GST-ER; format: binding
T3 construct: GST; made in house
T3 sequence (P03372 1-595): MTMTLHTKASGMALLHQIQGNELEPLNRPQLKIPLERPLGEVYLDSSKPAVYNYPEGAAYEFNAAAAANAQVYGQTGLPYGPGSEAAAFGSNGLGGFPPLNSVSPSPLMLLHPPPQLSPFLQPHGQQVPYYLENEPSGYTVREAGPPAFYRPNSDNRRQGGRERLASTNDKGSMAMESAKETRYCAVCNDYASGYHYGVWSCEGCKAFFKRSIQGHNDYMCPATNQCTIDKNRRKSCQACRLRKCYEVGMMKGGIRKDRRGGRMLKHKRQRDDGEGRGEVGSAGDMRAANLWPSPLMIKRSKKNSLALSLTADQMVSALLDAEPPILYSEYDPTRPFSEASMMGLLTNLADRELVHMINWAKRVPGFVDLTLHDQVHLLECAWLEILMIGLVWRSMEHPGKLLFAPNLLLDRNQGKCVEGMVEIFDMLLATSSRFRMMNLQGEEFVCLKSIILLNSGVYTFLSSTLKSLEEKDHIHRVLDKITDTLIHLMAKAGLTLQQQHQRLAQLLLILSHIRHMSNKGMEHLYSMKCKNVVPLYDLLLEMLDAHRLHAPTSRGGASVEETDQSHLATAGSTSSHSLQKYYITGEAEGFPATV
From the text: as §4

TR = target: T4, TR (Homo sapiens, UniProt P10828); experiment: Dominant-negative CAT assay TR/DR4-tk-CAT with SRC-1(0.8) in Lmtk- cells; format: cell-based; set-up: expressed in transfected cells; host or cells: Lmtk- (mouse fibroblast) cells; settings: 10 μg SRC-1(0.8), hormone 2×10^−8 M
T4 sequence (P10828 1-461): T2 sequence (P10828 1-461)
Experimental: as §1, §2, §3

CCC(=O)[C@@]1(C)CC[C@H]2[C@@H]3CCC4=CC(=O)CCC4=C3CC[C@@]21C [R5020, reference compound]
induction of hPR activity (CAT reporter) (hPR [1]): ~5 fold

B1: SRC-1(0.8): N-terminal truncated form of SRC-1, amino acids 865-1061, containing the receptor-binding region; dominant-negative repressor (protein, UniProt Q15788 865-1061, looked up, fragment)
chain: LNRLPELELEAIDNQFGQPGTGDQIPWTNNTVTAINQSKSEDQCISSQLDELLCPPTTVEGRNDEKALLEQLVSFLSGKDETELAELDRALGIDKLVQGGGLDVLSERFPPQQATPPLIMEERPNLYSQPYSSPSPTANLPSPFQGMVRQKPSLGTMPVQVTPPRGAFSPGMGMQPRQTLNRPPAAPNQLRLQLQQR
effect on hormone induced transcriptional activity of hPR (hPR [2]; 10 μg SRC-1(0.8), hormone 2×10^−8 M): efficiently reduced | effect on the hormone-free receptor (hPR [2]; no hormone): No major effect | interaction with GST-TR in vitro (GST-TR): able to interact | interaction with GST-ER in vitro (GST-ER): able to interact | effect on ligand-induced transcriptional activity of TR (TR): inhibits

— patent US6380373B1, “Steroid receptor coactivator compositions and methods of use” (Baylor College of Medicine, priority 1995, dated 2002)
